T1: PUF4 RNA-binding domain (Saccharomyces cerevisiae, UniProt P25339 537-888)
T1 sequence: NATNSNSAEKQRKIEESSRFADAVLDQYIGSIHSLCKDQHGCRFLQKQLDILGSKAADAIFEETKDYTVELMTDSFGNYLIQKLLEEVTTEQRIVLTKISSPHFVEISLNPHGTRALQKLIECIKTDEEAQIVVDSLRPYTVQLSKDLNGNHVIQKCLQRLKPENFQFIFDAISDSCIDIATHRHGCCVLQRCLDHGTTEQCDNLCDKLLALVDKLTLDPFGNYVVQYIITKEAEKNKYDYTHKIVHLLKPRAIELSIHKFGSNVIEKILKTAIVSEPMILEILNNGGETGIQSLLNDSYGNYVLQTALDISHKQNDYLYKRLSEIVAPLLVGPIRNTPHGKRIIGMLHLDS


Target: T1, PUF4 RNA-binding domain
Experiment: Mg; RNA-MaP; 20 mM Na-HEPES pH 7.4, 30 mM KOAc, 0.75 mM MgCl2, 0.1% Tween-20, 5% glycerol, 0.1 mg/mL BSA, 2 mM DTT; 25 C; 0.0125-409.6 nM protein
Conditions: tags: N-His6-TEV cleaved; C-SNAP kept, Cy3B-labelled; label: tethered on chip by stalled RNA polymerase

Binder	Kd
ACAAACUCACACUAUUAAAACAAAC (ssRNA) [Id_ii_S3_P4E.4_K4.3_C4.2_[C-2T]_[T-1C]_H4.3_A4.1_F4.1_T4.2_[G10A]_[T11A]]	> 2300 nM
ACAAACUCACACUAUUAGUACAAAC (ssRNA) [Id_ii_S3_P4E.4_K4.3_C4.2_[C-2T]_[T-1C]_H4.3_A4.1_F4.1_T4.2]	> 2300 nM
UCUCUUUGUAUUCUUCUCUCUU (ssRNA) [Ib_S1_P5E.1_K5.1_C5.1_H5.1_A5.1_[A7C]_F5.1_[A10C]_T5.1]	36.4 nM
ACAAACUAACACUAUUACGACAAAC (ssRNA) [Id_ii_S3_P4E.4_K4.3_C4.2_[C-2T]_[T-1A]_H4.3_A4.1_F4.1_T4.2_[G10C]_[T11G]]	> 2300 nM
ACAAACUUACACUAUUAUAACAAAC (ssRNA) [Id_ii_S3_P4E.4_K4.3_C4.2_[C-2T]_H4.3_A4.1_F4.1_T4.2_[G10T]_[T11A]]	1640 nM
ACAAACUUACACUAUUAAAACAAAC (ssRNA) [Id_ii_S3_P4E.4_K4.3_C4.2_[C-2T]_H4.3_A4.1_F4.1_T4.2_[G10A]_[T11A]]	> 2300 nM
ACAAACUUACACUAUUAGAACAAAC (ssRNA) [Id_ii_S3_P4E.4_K4.3_C4.2_[C-2T]_H4.3_A4.1_F4.1_T4.2_[T11A]]	> 2300 nM
ACAAACAGACACUAUUAGAACAAAC (ssRNA) [Id_ii_S3_P4E.4_K4.3_C4.2_[C-2A]_[T-1G]_H4.3_A4.1_F4.1_T4.2_[T11A]]	> 2300 nM
ACAAACACACACUAUUACUACAAAC (ssRNA) [Id_ii_S3_P4E.4_K4.3_C4.2_[C-2A]_[T-1C]_H4.3_A4.1_F4.1_T4.2_[G10C]]	> 2300 nM
ACAAACACACACUAUUAUUACAAAC (ssRNA) [Id_ii_S3_P4E.4_K4.3_C4.2_[C-2A]_[T-1C]_H4.3_A4.1_F4.1_T4.2_[G10T]]	> 2300 nM
ACAAACACACACUAUUAACACAAAC (ssRNA) [Id_ii_S3_P4E.4_K4.3_C4.2_[C-2A]_[T-1C]_H4.3_A4.1_F4.1_T4.2_[G10A]_[T11C]]	> 2300 nM
ACAAACACACACUAUUAGCACAAAC (ssRNA) [Id_ii_S3_P4E.4_K4.3_C4.2_[C-2A]_[T-1C]_H4.3_A4.1_F4.1_T4.2_[T11C]]	> 2300 nM
ACAAACAAACACUAUUACCACAAAC (ssRNA) [Id_ii_S3_P4E.4_K4.3_C4.2_[C-2A]_[T-1A]_H4.3_A4.1_F4.1_T4.2_[G10C]_[T11C]]	> 2300 nM
UCUCUUUGUAUUUUUCUCUCUU (ssRNA) [Ib_S1_P5E.1_K5.1_C5.1_H5.1_A5.1_[A7T]_F5.1_[A10C]_T5.1]	23.8 nM
ACAAACAAACACUAUUAUGACAAAC (ssRNA) [Id_ii_S3_P4E.4_K4.3_C4.2_[C-2A]_[T-1A]_H4.3_A4.1_F4.1_T4.2_[G10T]_[T11G]]	> 2300 nM
ACAAACAAACACUAUUAAGACAAAC (ssRNA) [Id_ii_S3_P4E.4_K4.3_C4.2_[C-2A]_[T-1A]_H4.3_A4.1_F4.1_T4.2_[G10A]_[T11G]]	> 2300 nM

Binder	Kd
ACAAACAAACACUAUUAACACAAAC (ssRNA) [Id_ii_S3_P4E.4_K4.3_C4.2_[C-2A]_[T-1A]_H4.3_A4.1_F4.1_T4.2_[G10A]_[T11C]]	> 2300 nM
ACAAACAAACACUAUUAGCACAAAC (ssRNA) [Id_ii_S3_P4E.4_K4.3_C4.2_[C-2A]_[T-1A]_H4.3_A4.1_F4.1_T4.2_[T11C]]	> 2300 nM
ACAAACAUACACUAUUACCACAAAC (ssRNA) [Id_ii_S3_P4E.4_K4.3_C4.2_[C-2A]_H4.3_A4.1_F4.1_T4.2_[G10C]_[T11C]]	740 nM
ACAAACAUACACUAUUAUAACAAAC (ssRNA) [Id_ii_S3_P4E.4_K4.3_C4.2_[C-2A]_H4.3_A4.1_F4.1_T4.2_[G10T]_[T11A]]	902 nM
ACAAACAUACACUAUUAUUACAAAC (ssRNA) [Id_ii_S3_P4E.4_K4.3_C4.2_[C-2A]_H4.3_A4.1_F4.1_T4.2_[G10T]]	600 nM
ACAAACAUACACUAUUAACACAAAC (ssRNA) [Id_ii_S3_P4E.4_K4.3_C4.2_[C-2A]_H4.3_A4.1_F4.1_T4.2_[G10A]_[T11C]]	1470 nM
ACAAACAUACACUAUUAAAACAAAC (ssRNA) [Id_ii_S3_P4E.4_K4.3_C4.2_[C-2A]_H4.3_A4.1_F4.1_T4.2_[G10A]_[T11A]]	1130 nM
ACAAACAUACACUAUUAAUACAAAC (ssRNA) [Id_ii_S3_P4E.4_K4.3_C4.2_[C-2A]_H4.3_A4.1_F4.1_T4.2_[G10A]]	740 nM
UCUCUUUGUAUUGUUUUCUCUU (ssRNA) [Ic_S1_P5E.1_K5.1_C5.1_H5.1_A5.1_[A7G]_F5.1_[A10T]_T5.1]	42.9 nM
ACAAACAUACACUAUUAGAACAAAC (ssRNA) [Id_ii_S3_P4E.4_K4.3_C4.2_[C-2A]_H4.3_A4.1_F4.1_T4.2_[T11A]]	846 nM
ACAAACCGACACUAUUACCACAAAC (ssRNA) [Id_ii_S3_P4E.4_K4.3_C4.2_[T-1G]_H4.3_A4.1_F4.1_T4.2_[G10C]_[T11C]]	> 2300 nM
ACAAACCGACACUAUUAUGACAAAC (ssRNA) [Id_ii_S3_P4E.4_K4.3_C4.2_[T-1G]_H4.3_A4.1_F4.1_T4.2_[G10T]_[T11G]]	> 2300 nM
ACAAACCGACACUAUUAUUACAAAC (ssRNA) [Id_ii_S3_P4E.4_K4.3_C4.2_[T-1G]_H4.3_A4.1_F4.1_T4.2_[G10T]]	> 2300 nM
ACAAACCGACACUAUUAACACAAAC (ssRNA) [Id_ii_S3_P4E.4_K4.3_C4.2_[T-1G]_H4.3_A4.1_F4.1_T4.2_[G10A]_[T11C]]	> 2300 nM
ACAAACCGACACUAUUAAAACAAAC (ssRNA) [Id_ii_S3_P4E.4_K4.3_C4.2_[T-1G]_H4.3_A4.1_F4.1_T4.2_[G10A]_[T11A]]	> 2300 nM

— article PMC9352680, “A comprehensive thermodynamic model for RNA binding by the Saccharomyces cerevisiae Pumilio protein PUF4”
